We go through two substances from patent US20110207152A1.

Experiment [1] deals with F-actin prepared from rabbit muscle actin (rabbit) (UniProt P68135). The experiment can be described thus: cell-based or functional assay.
Experiment [2] concerns the target native human plasma gelsolin (human) (UniProt P06396). The experiment can be described thus: sandwich ELISA on human plasma; detection antibody GS2C4 (HRP), capture antibody GF2D6.
Experiment [3] has the same target. The experiment can be described thus: sandwich ELISA on human plasma; detection antibody GS2C4 (HRP), capture antibody GC1C10.
For experiment [4] the target is unchanged. The experiment can be described thus: sandwich ELISA on human plasma; detection antibody GS2C4 (HRP), capture antibody GN3E9.

Sequence of native human plasma gelsolin (P06396 28-782 limits assumed): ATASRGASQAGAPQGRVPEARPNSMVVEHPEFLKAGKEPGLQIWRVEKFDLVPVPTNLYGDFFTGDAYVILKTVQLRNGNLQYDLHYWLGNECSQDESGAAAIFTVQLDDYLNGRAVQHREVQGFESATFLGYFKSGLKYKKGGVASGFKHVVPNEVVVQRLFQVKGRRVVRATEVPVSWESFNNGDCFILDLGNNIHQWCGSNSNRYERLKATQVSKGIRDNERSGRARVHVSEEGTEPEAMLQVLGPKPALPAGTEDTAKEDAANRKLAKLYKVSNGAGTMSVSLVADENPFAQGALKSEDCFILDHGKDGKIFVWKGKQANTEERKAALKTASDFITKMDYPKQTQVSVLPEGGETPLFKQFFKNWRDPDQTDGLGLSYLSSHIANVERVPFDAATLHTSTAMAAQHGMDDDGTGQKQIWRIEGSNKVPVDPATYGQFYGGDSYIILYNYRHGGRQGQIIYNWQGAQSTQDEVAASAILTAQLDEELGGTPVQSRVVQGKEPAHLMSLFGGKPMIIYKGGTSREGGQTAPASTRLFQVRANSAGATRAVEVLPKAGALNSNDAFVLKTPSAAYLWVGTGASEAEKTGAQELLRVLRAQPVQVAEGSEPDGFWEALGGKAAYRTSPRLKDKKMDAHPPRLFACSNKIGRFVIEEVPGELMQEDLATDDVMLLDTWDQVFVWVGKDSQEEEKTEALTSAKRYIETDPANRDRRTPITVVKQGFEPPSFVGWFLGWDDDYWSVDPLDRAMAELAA
Sequence of native human plasma gelsolin (human) (P06396 28-782 limits assumed): as above

As for “native human plasma gelsolin (from UniProt P06396 28-782)”, in experiment [1], the % of F-actin at 0.1 mg/ml gelsolin (F-actin severing assay) is 35%, the % of F-actin at 0.5 mg/ml gelsolin (F-actin severing assay) is 21% and the % of F-actin at 1.0 mg/ml gelsolin (F-actin severing assay) is 12%.
For “commercial anti-human gelsolin antibody GS2C4 (Sigma Chemical Co.)”, the OD (sandwich ELISA pairing) in experiment [2] is 0.013 OD; in experiment [3], 0.014 OD; in experiment [4], 0.025 OD.
